Legend:
rev protein [1] = test: Competition filter binding against 32P-labelled R7 (FIGS. 13, 17); parameters: species or system HIV-1; details: 1.5 nM labelled R7, 24 nM rev, 0-60 nM competitor
Procedure: In these experiments, uniformly ^32 P-labelled R7 (1.5 nM) was competed against 0-60 nM unlabelled competitor RNA in the presence of 24 nM rev protein.
The mixtures for competition binding (0.5 ml) included 1.5 nM ^32 P-labelled R7 (ca. 20,000 cpm), 24 nM rev protein, 1.5 ug/ml calf thymus DNA, 0.67 ug/ml yeast rRNA, varying concentrations (0-60 nM) of unlabelled competitor RNA and 80 units/ml RNasin in TK buffer (50 mM Tris-HCl (pH7.9) and 20 mM KCl). Binding was allowed to take place for more than 15 min on ice, and each mixture was passed through a Millipore GS filter (a 2.5 cm disk with a pore size of 0.22 um) prewashed twice with 0.6 ml of ice-cold TK buffer. The filter was washed with 0.6 ml of cold TK buffer and dried. The radioactivity retained on the filter was counted by liquid scintillation, and the results were plotted on a graph (FIG. 13).

rev protein [2] = test: Saturation binding of rev protein to labelled RBC6 (FIG. 15); parameters: species or system HIV-1; details: 1.5 nM labelled RBC6, 0-50 nM rev; read-out: Kd from saturation binding, Scatchard plot
Procedure: (§1) Binding experiments were carried out using labelled RBC6 (SEQ ID NO:20 and SEQ ID NO:21) duplex formed frm the 5'-^32 P-labelled 14-mer oligoribonucleotide annealed to the 15 mer (0.6 nM) and 0-150 nM unlabelled RBC6 in the presence of 24 nM rev protein.
The mixtures for binding (0.5 ml) included 1.5 nM ^32 P-labelled RBC6 (SEQ ID NO:20 and SEQ ID NO:21) (ca. 20,000 cpm), varying concentrations (0-50 nM) of rev protein and 80 units/ml RNasin in TK buffer. The filter binding assays were carried out as described above, and the results were plotted on a graph (FIG. 15).

rev protein [3] = test: Scatchard analysis of RBC6 binding to rev (FIG. 14); parameters: species or system HIV-1; details: 0.6 nM labelled RBC6, 0-150 nM unlabelled RBC6, 24 nM rev; read-out: Kd (binding constant) from Scatchard plot
Procedure: as §1
The mixtures for binding (0.5 ml) included 0.6 nM ^32 P-labelled RBC6 (SEQ ID NO:20 and SEQ ID NO:21) (ca. 20,000 cpm), 24 nM rev protein, varying concentrations (0-150 nM) of unlabelled RBC6 (SEQ ID NO:20 and SEQ ID NO:21) and 80 units/ml RNasin in TK buffer. The filter binding assays were carried out as described above, and a Scatchard plot (FIG. 14) was obtained from the results.

HIV-1 Rev [4] = target: T1, HIV-1 Rev (Human immunodeficiency virus 1, UniProt P04618 P04618:1-116); test: filter; 50 mM KCl, 4 C; 20% bound at 10 nM rev; details: tags: none stated; heparin-Sepharose and Superose 6 purified; chain copies: oligomer (tetramer likely; about 4 per RBC6, 6-8 per full-length RRE at 50 mM KCl) stated; label: 32P uniform
HIV-1 Rev [5] = target: T1, HIV-1 Rev; test: filter; 50 mM KCl, 4 C; 15% bound at 10 nM rev; details: tags: none stated; heparin-Sepharose and Superose 6 purified; chain copies: oligomer (tetramer likely; about 4 per RBC6, 6-8 per full-length RRE at 50 mM KCl) stated; label: 32P uniform
HIV-1 Rev [6] = target: T1, HIV-1 Rev; test: filter; 50 mM KCl, 4 C; 17% bound at 10 nM rev; details: tags: none stated; heparin-Sepharose and Superose 6 purified; chain copies: oligomer (tetramer likely; about 4 per RBC6, 6-8 per full-length RRE at 50 mM KCl) stated; label: 32P uniform
HIV-1 Rev [7] = target: T1, HIV-1 Rev; test: filter; 50 mM KCl, 4 C; 35% bound at 10 nM rev; details: tags: none stated; heparin-Sepharose and Superose 6 purified; chain copies: oligomer (tetramer likely; about 4 per RBC6, 6-8 per full-length RRE at 50 mM KCl) stated; label: 32P uniform; stem-loop with altered bubble
HIV-1 Rev [8] = target: T1, HIV-1 Rev; test: competition; D1/2 vs labelled RRE RNA, 17 nM rev; details: tags: none stated; heparin-Sepharose and Superose 6 purified; chain copies: oligomer (tetramer likely; about 4 per RBC6, 6-8 per full-length RRE at 50 mM KCl) stated; label: 32P uniform; stem-loop with altered bubble

“RBC6: chemically synthesized RNA duplex (14-mer annealed to 15-mer), bubble with six base pairs on each side (chain 1 CGUGUGGGCGCAGC; chain 2 GCUGCGGUACACACG; RNA, backbone not given here)” was tested, and the “competition for rev binding against labelled R7, result in words” value (rev protein [1]) was “competed about half as well as R7”, the Kd (rev protein [2]) was 3.8 nM and the Kd (rev protein [3]) was about 3 nM.

B1: R50 (ssRNA)
RNA: GGGAGACCGGAAUUCUGGACGCAGUGUCAUUGACGCUGCGGUACAGAAUUCCGGCA
modifications: [-]
For B1, the Kd (HIV-1 Rev [4]) was 5 nM.

B2: R39 (ssRNA)
RNA: GGGAGACCGGAAUUCAGGGCGCAGUGUCAUUGACGCUGCGGUACUGAAUUCCGGCA
modifications: [-]
Molecule B2 has a Kd (HIV-1 Rev [5]) of 8 nM.

B3: R54 (ssRNA)
RNA: GGGAGACCGGAAUUCCGGGCGCAGUGUCAUUGACGCUGCGGUACGGAAUUCCGGCA
modifications: [-]
Molecule B3 has a Kd (HIV-1 Rev [6]) of 6 nM.

B4: R35 (dG35) (ssRNA)
RNA: GGGAGACCGGAAUUCUGGCGCAGUGUCAUUGACGCUGCGGUACAGAAUUCCGGCA
In the case of B4, the Kd (HIV-1 Rev [7]) is reported as 4 nM and the IC50 (HIV-1 Rev [8]) is reported as 16 nM.

Source: patent publication US5786145A, “Oligonucleotide competitors for binding of HIV RRE to REV protein and assays for screening inhibitors of this binding” (Medical Research Council, priority 1995, dated 1998)
